The values that follow come from patent publication US12258430B2, “Compositions and methods for labeling and modulation of cells in vitro and in vivo” (President and Fellows of Harvard College, priority 2018, dated 2025).

Series [1] can be described thus: Water-solubility of azido-sugar. The series is classed as physicochemical.
Series [2] concerns DC2.4 cells. In words: Metabolic labeling of DC2.4 cells with azido-sugars, detected by DBCO agents (flow cytometry). The series is classed as cell-based. The conditions noted are these: 3 days incubation, DBCO-Cy5 staining 30 min; vs control cells without pretreatment. On the procedure:
It was first tested whether tetraacetyl-N-azidoacetylmannosamine (Ac4ManAz), a commonly used metabolic labeling agent, can label DC2.4 cell line with azido groups (FIG. 2A). Ac4ManAz was synthesized following the reported procedure (Wang, H. et al. Selective in vivo metabolic cell-labeling-mediated cancer targeting. Nature Chemical Biology 13, 415-424 (2017)). […] For flow cytometry analysis of azido-labeled cells, cells were seeded in a 24-well plate at a density of 1×10^4 cells per well and allowed to attach for 12 hours. Azido-sugar was added and incubated with cells for 72 hours. […] Cells were then collected via a cell scraper, re-suspended in FACS buffer, and analyzed by flow cytometry.
(In general: A flow cytometer gives signals particle by particle.)

Series [3] has as its system azido-labeled BMDCs. In words: In vitro capture of DBCO-OVA and DBCO-CpG by azido-labeled BMDCs. The series is classed as cell-based. The conditions noted are these: BMDCs labeled with G400 NP three days, 30 min incubation; vs FITC-OVA. The protocol: Another objective of this invention was to utilize azido-labeled DCs, as achieved above, for LN-targeted delivery of DBCO-bearing antigens and adjuvants. It was first studied whether azido-labeled DCs could covalently capture DBCO-ovalbumin (OVA) and DBCO-CpG in vitro. BMDCs were labeled with G400 NP for three days and incubated with DBCO/FITC-OVA or FITC-OVA for 30 min. […] Similarly, BMDCs pretreated with G400 NP were able to capture more DBCO/Cy5-CpG than control BMDCs (FIGS. 5C and 5D).

For series [4], the system named is azido-labeled DCs in dLNs. The experiment in a line: In vivo LN-targeted delivery of DBCO-OVA. The conditions noted are these: for A647 signal of LNs: 48 h post injection. Also on record: species or system C57BL/6 mice. From the text: It was next studied whether the azido-labeled DCs in dLNs can mediate targeted delivery of DBCO-OVA via Click chemistry.

Regarding `CC(=O)OC[C@H]1OC(OC(C)=O)[C@@H](NC(=O)CN=[N+]=[N-])[C@@H](OC(C)=O)[C@@H]1OC(C)=O` (some centres unmarked) [Ac4ManAz, tetraacetyl-N-azidoacetylmannosamine], the water-solubility entry in series [1] was “poor”. The “Cy5 signal of DC2.4 cells” value in series [2] is reported as “significantly enhanced Cy5 signal”.

B1: DBCO/FITC-OVA: DBCO- and FITC-modified ovalbumin (conjugate, UniProt P01012 2-386, looked up)
Ovalbumin: GSIGAASMEFCFDVFKELKVHHANENIFYCPIAIMSALAMVYLGAKDSTRTQINKVVRFDKLPGFGDSIEAQCGTSVNVHSSLRDILNQITKPNDVYSFSLASRLYAEERYPILPEYLQCVKELYRGGLEPINFQTAADQARELINSWVESQTNGIIRNVLQPSSVDSQTAMVLVNAIVFKGLWEKAFKDEDTQAMPFRVTEQESKPVQMMYQIGLFRVASMASEKMKILELPFASGTMSMLVLLPDEVSGLEQLESIINFEKLTEWTSSNVMEERKIKVYLPRMKMEEKYNLTSVLMAMGITDVFSSSANLSGISSAESLKISQAVHAAHAEINEAGREVVGSAEAGVDAASVSEEFRADHPFLFCIKHIATNAVLFFGRCVSP
modifications: FITC, DBCO
notes: DBCO- and FITC-modified ovalbumin
Consider B1, for which, in series [3], the “cellular uptake by azido-labeled BMDCs” value was “improved cellular uptake”.

B2: A647-OVA: Alexa fluor647-conjugated OVA without DBCO (conjugate, UniProt P01012 2-386, looked up)
Ovalbumin: B1 Ovalbumin
modifications: Alexa Fluor 647
notes: Alexa fluor647-conjugated OVA without DBCO
For B2, the “A647 signal of LNs” value in series [4] was “dramatically decreased”.

B3: DBCO/A647-OVA: Alexa fluor647 (A647)-conjugated DBCO-OVA (conjugate, UniProt P01012 2-386, looked up)
Ovalbumin: B1 Ovalbumin
modifications: Alexa Fluor 647, DBCO
Consider B3, for which the “percentage of A647-OVA+ DCs in dLNs” value in series [4] (6 h post injection) is listed as around 43%. For the same molecule, the “A647 fluorescent signal in dLNs” value in series [4] (6 h post injection, vs A647-OVA) is listed as “significantly enhanced A647 fluorescent signal”. The “accumulation in dLNs” value in series [4] (24 h post injection, vs A647-OVA) is “significantly improved accumulation”. The “A647 signal of LNs” value in series [4] is “dramatically decreased”.
